In publication PMC5895635:
Values belong to the substance of their own block, whether it stands above or below them.

Tests used:
Test in all cases: two-hybrid; β-galactosidase activity in yeast strain AH109 with the Yeast β-galactosidase Assay Kit (Thermo Fisher Scientific); pGBKT7 bait and pGADT7 prey; three biological replicates
[1] = biological target: MnMADS1 (mulberry 'Jinqiang 63' (JQ63) used for vector construction; gene identified in Morus notabilis)
pGBKT7-53 = biological target: pGBKT7-53
[2] = biological target: MnMADS33 (mulberry 'Jinqiang 63' (JQ63) used for vector construction; gene identified in Morus notabilis)
[3] = biological target: MnMADS50 (mulberry 'Jinqiang 63' (JQ63) used for vector construction; gene identified in Morus notabilis)

β-galactosidase activity [1]: 15.3 units
Substance: MnMADS50 (natural protein)

Substance: pGADT7-T
β-galactosidase activity (pGBKT7-53): 15.7 units

β-galactosidase activity [2]: 15.1 units
β-galactosidase activity [3]: 16.3 units
Substance: MnMADS1 (natural protein)

β-galactosidase activity [1]: 17.5 units
Substance: MnMADS33 (natural protein)
